Measurements: paper PMC12016517, “Transcriptional regulation of two redundant 3-bromo-4-hydroxybenzoate catabolic operons via two different regulatory modes in Pigmentiphaga kullae strain H8” (Applied and Environmental Microbiology, 2025)
Where “and” joins values, the source holds several entries; their conditions need not be identical. Equal entries are not always repeated.

How the values were obtained:
[1] = biological target: T1, BhbR2 (MarR-family transcription factor); assay: SPR (Biacore T200, protein immobilized on CM7 chip, steady-state affinity); type: binding, Pigmentiphaga kullae
T1 construct: C-terminal His-tagged BhbR2 (179 amino acids), expressed in E. coli BL21(DE3)

[2] = biological target: T2, BhbR1 (LysR-type transcriptional regulator); assay: as above; type: binding, Pigmentiphaga kullae
T2 construct: C-terminal His-tagged BhbR1 (302 amino acids), expressed in E. coli BL21(DE3)

[3] = test system: T3, BhbR1 (LysR-type regulator) (Pigmentiphaga kullae H8), ORF:3710a82b; assay: SPR; conditions: EMSA BhbR1: 100 mM Tris-HCl pH 8.0, 50 mM KCl, 5% glycerol, 1 mM DTT, BhbR2: 50 mM Tris-HCl pH 8.0, 30 mM KCl, 1 mM EDTA, 5 mM DTT, 25 C, 30 min. …
T3 sequence: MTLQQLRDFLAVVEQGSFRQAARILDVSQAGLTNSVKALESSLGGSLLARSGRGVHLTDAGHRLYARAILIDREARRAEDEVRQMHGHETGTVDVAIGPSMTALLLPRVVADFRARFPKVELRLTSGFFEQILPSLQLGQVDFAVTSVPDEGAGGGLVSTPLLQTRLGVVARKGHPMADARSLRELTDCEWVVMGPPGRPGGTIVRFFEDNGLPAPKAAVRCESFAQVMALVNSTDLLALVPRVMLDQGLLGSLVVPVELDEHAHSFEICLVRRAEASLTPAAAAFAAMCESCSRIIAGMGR

[4] = test system: BhbR2 (MarR-family regulator) (Pigmentiphaga kullae H8); assay: SPR; conditions: EMSA BhbR1: 100 mM Tris-HCl pH 8.0, 50 mM KCl, 5% glycerol, 1 mM DTT, BhbR2: 50 mM Tris-HCl pH 8.0, 30 mM KCl, 1 mM EDTA, 5 mM DTT, 25 C, 30 min. …
[5] = test system: BhbR1 (LysR-type regulator) (Pigmentiphaga kullae H8); assay: SPR; conditions: EMSA BhbR1: 100 mM Tris-HCl pH 8.0, 50 mM KCl, 5% glycerol, 1 mM DTT, BhbR2: 50 mM Tris-HCl pH 8.0, 30 mM KCl, 1 mM EDTA, 5 mM DTT, 25 C, 30 min. …
[6] = test system: T3, BhbR1 (LysR-type regulator) (Pigmentiphaga kullae H8), ORF:3710a82b; assay: EMSA; conditions: EMSA BhbR1: 100 mM Tris-HCl pH 8.0, 50 mM KCl, 5% glycerol, 1 mM DTT, BhbR2: 50 mM Tris-HCl pH 8.0, 30 mM KCl, 1 mM EDTA, 5 mM DTT, 25 C, 30 min. …
[7] = test system: T4, BhbR2 (MarR-family regulator) (Pigmentiphaga kullae H8), ORF:e62c0bd9; assay: EMSA; conditions: EMSA BhbR1: 100 mM Tris-HCl pH 8.0, 50 mM KCl, 5% glycerol, 1 mM DTT, BhbR2: 50 mM Tris-HCl pH 8.0, 30 mM KCl, 1 mM EDTA, 5 mM DTT, 25 C, 30 min. …
T4 sequence: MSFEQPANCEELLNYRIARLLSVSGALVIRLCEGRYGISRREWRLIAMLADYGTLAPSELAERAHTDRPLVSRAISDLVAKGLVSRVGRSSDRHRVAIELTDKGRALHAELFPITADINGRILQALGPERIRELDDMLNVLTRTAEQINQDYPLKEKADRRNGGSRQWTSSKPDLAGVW

[8] = test system: T4, BhbR2 (MarR-family regulator) (Pigmentiphaga kullae H8), ORF:e62c0bd9; assay: SPR; conditions: EMSA BhbR1: 100 mM Tris-HCl pH 8.0, 50 mM KCl, 5% glycerol, 1 mM DTT, BhbR2: 50 mM Tris-HCl pH 8.0, 30 mM KCl, 1 mM EDTA, 5 mM DTT, 25 C, 30 min. …
[9] = biological target: LysR-type transcriptional regulator BhbR1 (Pigmentiphaga kullae strain H8); assay: SEC; gel filtration on Superose 6 10/300 GL, 25°C, PBS pH 7.8, 0.4 mL/min, calibrated with protein molecular weight markers; oligomeric state of the purified regulator
[10] = biological target: MarR-family transcription factor BhbR2 (Pigmentiphaga kullae strain H8); assay: as above

Compound `O=C(O)c1ccc(O)c(Br)c1` [3-Br-4-HB, 3-bromo-4-hydroxybenzoate] has a Kd [1] of 2100 nM and a Kd [2] of 2200 nM.
In the case of “ACCAGCAAGGAACGTGCCCCGTGATCCGCGGTTGCTGATAGCAAACCGTTATCGAGATAAGGAAAAACTGGCTTTTCGCTGTGCGCGTGGATCGTGATACTGCCGCCGGGCCTGGATGAACGGGCCCGGCAACGGAACTACGAC (double strand) [Fphbh1 (Fpbhb1)]”, the Kd [3] is reported as 0.7 nM and 1.2 nM.
FpcaA2 gave a Kd ([4]; 5 uM 3-Br-4-HB) of 259 nM and a Kd ([4]; no inducer) of 397 nM.
In the case of Fphbh1 (Fpbhb1), the Kd ([5]; 5 uM 3-Br-4-HB) is reported as 1.2 nM and the Kd ([5]; no inducer) is reported as 0.7 nM.
For “GAACTCGAGGTGCTGTCGATTTGTGCCATGTTGATCTCCTTCATGGACGCCGGCGGCTTCCACGCCTGCGTCCGGGGACGAGAAACTGCGGAAGCGTCGGGATACCAGCAAGGAACGTGCCCCGTGATCCGCGGTTGCTGATAGCAAACCGTTATCGAGATAAGGAAAAACTGGCTTTTCGCTGTGCGCGTGGATCGTGATACTGCCGCCGGGCCTGGATGAACGGGCCCGGCAACGGAACTACGACCCACGACTAGTTTC (double strand) [PbR1 (Pphbh1 promoter probe, EMSA)]”, the binding [6] was “binds”.
With “GAACTCGAGTGATGCCGTAGCGGCCTTCGCACAACCGGATCACCAGCGCCCCGCTGACCGACAGCAGCCTGGCTATCCGGTAGTTCAGGAGTTCCTCGCAATTTGCGGGCTGCTCGAAGGACATGGCTGCTCCTGTGCCGACGGCGGTTGATTAGAACAATCAAGGACATGAAAGCTAGAGTCATTCTCCATAAAAAGCCCAGCAGCCGCAACGCCATACGCCGGCGCGGCCCTGGTCGTTTTCCCTCTACCCAAGGAGCATTGCCCACTAGTTTC (double strand) [PbR2 (PpcaA2 promoter probe, EMSA)]” the binding [7] was “binds”.
For “GGGCAATGCTCCTTGGGTAGAGGGAAAACGACCAGGGCCGCGCCGGCGTATGGCGTTGCGGCTGCTGGGCTTTTTATGGAGAATGACTCTAGCTTTCATGTCCTTGATTGTTCTAATCAACCGCCGTCGGCACAGGAGCAGCCATGTCCTTCG (double strand) [FpcaA2]”, the Kd [8] was 397 nM and 259 nM.
For “LysR-type transcriptional regulator BhbR1 (natural protein)”, the stoichiometry N [9] was 4.
“MarR-family transcription factor BhbR2 (natural protein)” showed a stoichiometry N [10] of 2.
“TAATCCGACATCGGCCGCTCCAATAGTGAGAGGTCTTGCGATCCCCCCCTTTCCCCCGTAGGGCGTATGCGGTATTAGCTACGCTTTCGCGTAGTTATCCCCCGCTACTGGGCACGTTCCGATGCATTACTCACCCGTTCGCCACTCGCCGC (double strand) [Pb16S]” was tested, and the binding [6] was “no binding” and the binding [7] was “no binding”.
